The supplement of paper PMC7877785
± gives the uncertainty stated by the source.

Experiment: self-splicing fitness, log relative to wild type (ln ratio); higher = more splicing; Tetrahymena group I intron in knt gene, E. coli kanamycin selection, DiMSum; sequences stand for … in CUCUCU…GGAGGGAAAAGUUAUCAGGCAUGCACCUGGUAGCUAGUCUUUAAACCAAUAGAUUGCAUCGGUUUAAAAGGCAAGACCGUCAAAUUGCGGGAAAGGGGUCAACAGCCGUUCAGUACCAAGUCUCAGGGGAAACUUUGAGAUGGCCUUGCAAAGGGUAUGGUAAUAAGCUGACGGACAUGGUCCUAACCACGCAGCCAAGUCCUAAGUCAACAGAUCUUCUGUUGAUAUGGAUGCAGUUCACAGACUAAAUGUCGGUCGGGGAAGAUGUAUUCUUCUCAUAAGAUAUAGUCGGACCUCUCCUUAAUGGGAGCUAGCGGAUGAAGUGAUGCAACACUGGAGCCGCUGGGAACUAAUUUGUAUGCGAAAGUAUAUUGAUUAGUUUUGGAGUACUCGUGGUCG
Summary of the method: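 Pooled colonies went to amplicon sequencing on an Illumina HiSeq 2500 after six replicate transformations. The plates were LB agar with 100 μg/mL carbenicillin, 50 μM IPTG and 0.2% rhamnose, with or without 25 μg/mL kanamycin, incubated overnight at 37°C or 30°C. The E. coli BL21(DE3) library had all eight P1ex-region intron nucleotides randomised, the intron placed in the knt kanamycin-resistance gene on pET-22b(+). DiMSum fitness is the error-weighted combination of replicate fold changes, kanamycin against none, normalised to wild type.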

Sequence	self-splicing fitness (ln) (30 °C)	self-splicing fitness (ln) (37 °C)
CCCCAGCAAUAUUACGCGAG	-3.18 ± 0.15	-3.14 ± 0.31
CCCCAGCAAUAUUACGGAAU	-3.31 ± 0.13	-2.4 ± 0.2
CCCCAGCAAUAUUACGGAGU	-4.02 ± 0.15	-2.75 ± 0.15
CCCCAGCAAUAUUACGGAUU	-4.3 ± 0.16	-2.37 ± 0.13
CCCCAGCAAUAUUACGGCCG	-3.62 ± 0.17	-1.88 ± 0.16
CCCCAGCAAUAUUACGGCUG	-4.06 ± 0.19	-1.99 ± 0.15
CCCCAGCAAUAUUACGGGGU	-3.9 ± 0.12	-2.54 ± 0.11
CCCCAGCAAUAUUACGGGUG	-3.8 ± 0.12	-2.91 ± 0.13
CCCCAGCAAUAUUACGGUAG	-2 ± 0.065	-1.31 ± 0.097
CCCCAGCAAUAUUACGGUGU	-3.26 ± 0.11	-1.94 ± 0.1
CCCCAGCAAUAUUACGGUUU	-3.85 ± 0.16	-3.12 ± 0.21
CCCCAGCAAUAUUACGUCAC	-4.02 ± 0.23	-2.93 ± 0.26
CCCCAGCAAUAUUACGUCCA	-3.34 ± 0.19	-3.2 ± 0.28
CCCCAGCAAUAUUACGUCUC	-3.78 ± 0.16	-3.61 ± 0.19
CCCCAGCAAUAUUACGUGCU	-3.34 ± 0.14	-2.47 ± 0.16
CCCCAGCAAUAUUACGUUAG	-3.99 ± 0.15	-2.97 ± 0.15
CCCCAGCAAUAUUACGUUGA	-4.14 ± 0.13	-2.79 ± 0.12
CCCGAGCAAUAUUACGAAAC	–	-0.43 ± 0.4
CCCGAGCAAUAUUACGACUG	-4.27 ± 0.22	-2.56 ± 0.2
CCCGAGCAAUAUUACGAGAU	-3.49 ± 0.21	-2.59 ± 0.3
CCCGAGCAAUAUUACGAGGU	-3.75 ± 0.15	-3.11 ± 0.17
CCCGAGCAAUAUUACGAUUG	-2.74 ± 0.18	-2.63 ± 0.22
CCCGAGCAAUAUUACGAUUU	-3.84 ± 0.23	-2.15 ± 0.2
CCCGAGCAAUAUUACGCACC	-3.46 ± 0.28	-2.35 ± 0.4

Sequence	self-splicing fitness (ln) (30 °C)	self-splicing fitness (ln) (37 °C)
CCCGAGCAAUAUUACGCACG	–	-3.26 ± 0.47
CCCGAGCAAUAUUACGCAGA	-3.96 ± 0.25	-2.71 ± 0.33
CCCGAGCAAUAUUACGCGGA	-3.21 ± 0.28	-2.23 ± 0.2
CCCGAGCAAUAUUACGCUAG	-3.59 ± 0.37	-1.73 ± 0.36
CCCGAGCAAUAUUACGCUGG	-3.13 ± 0.16	-2.68 ± 0.26
CCCGAGCAAUAUUACGCUUG	–	-2.06 ± 0.33
CCCGAGCAAUAUUACGGAAA	-2.2 ± 0.32	-1.57 ± 0.33
CCCGAGCAAUAUUACGGCAA	-3.03 ± 0.35	-2.32 ± 0.22
CCCGAGCAAUAUUACGGCAG	-2.53 ± 0.29	-2.65 ± 0.44
CCCGAGCAAUAUUACGGCUG	-4.35 ± 0.39	-2.72 ± 0.33
CCCGAGCAAUAUUACGUGGA	-3.08 ± 0.21	-2.81 ± 0.22
CCCGAGCAAUAUUACGUUCC	-2.86 ± 0.4	–
CCCGAGCAAUAUUACGUUGC	-3.75 ± 0.12	-2.71 ± 0.16
CCCGAGCAAUAUUACGUUUG	-4.07 ± 0.23	-2.07 ± 0.14
CCCUAGCAAUAUUACGACGU	-3.83 ± 0.29	-3.29 ± 0.47
CCCUAGCAAUAUUACGACUG	-4.39 ± 0.36	-2.92 ± 0.27
CCCUAGCAAUAUUACGAGGA	-1.66 ± 0.074	-0.53 ± 0.075
CCCUAGCAAUAUUACGAUAU	-2.92 ± 0.15	-2.97 ± 0.27
CCCUAGCAAUAUUACGAUGA	-3.24 ± 0.18	-2.35 ± 0.2
CCCUAGCAAUAUUACGCAAG	-3.65 ± 0.28	-2.06 ± 0.23
CCCUAGCAAUAUUACGCAGC	-3 ± 0.17	-3.24 ± 0.35
CCCUAGCAAUAUUACGCAUG	-2.33 ± 0.14	-2.73 ± 0.2
CCCUAGCAAUAUUACGCCGG	-3.09 ± 0.17	-1.6 ± 0.22
CCCUAGCAAUAUUACGCCGU	-2.57 ± 0.25	-2.42 ± 0.39
